In patent US20210030857A1 (NGM BIOPHARMACEUTICALS, published 2021):

Assays:
[1] = molecular target: T1, cynomolgus monkey beta klotho protein (soluble, used in Biacore) (cynomolgus monkey (Macaca fascicularis), UniProt Q86Z14 53-996 (human entry), limits assumed); test: Biacore SPR (as in Example 2)
T1 construct: Protein in solution; also called Cyno KLB; cyKLB
T1 chain: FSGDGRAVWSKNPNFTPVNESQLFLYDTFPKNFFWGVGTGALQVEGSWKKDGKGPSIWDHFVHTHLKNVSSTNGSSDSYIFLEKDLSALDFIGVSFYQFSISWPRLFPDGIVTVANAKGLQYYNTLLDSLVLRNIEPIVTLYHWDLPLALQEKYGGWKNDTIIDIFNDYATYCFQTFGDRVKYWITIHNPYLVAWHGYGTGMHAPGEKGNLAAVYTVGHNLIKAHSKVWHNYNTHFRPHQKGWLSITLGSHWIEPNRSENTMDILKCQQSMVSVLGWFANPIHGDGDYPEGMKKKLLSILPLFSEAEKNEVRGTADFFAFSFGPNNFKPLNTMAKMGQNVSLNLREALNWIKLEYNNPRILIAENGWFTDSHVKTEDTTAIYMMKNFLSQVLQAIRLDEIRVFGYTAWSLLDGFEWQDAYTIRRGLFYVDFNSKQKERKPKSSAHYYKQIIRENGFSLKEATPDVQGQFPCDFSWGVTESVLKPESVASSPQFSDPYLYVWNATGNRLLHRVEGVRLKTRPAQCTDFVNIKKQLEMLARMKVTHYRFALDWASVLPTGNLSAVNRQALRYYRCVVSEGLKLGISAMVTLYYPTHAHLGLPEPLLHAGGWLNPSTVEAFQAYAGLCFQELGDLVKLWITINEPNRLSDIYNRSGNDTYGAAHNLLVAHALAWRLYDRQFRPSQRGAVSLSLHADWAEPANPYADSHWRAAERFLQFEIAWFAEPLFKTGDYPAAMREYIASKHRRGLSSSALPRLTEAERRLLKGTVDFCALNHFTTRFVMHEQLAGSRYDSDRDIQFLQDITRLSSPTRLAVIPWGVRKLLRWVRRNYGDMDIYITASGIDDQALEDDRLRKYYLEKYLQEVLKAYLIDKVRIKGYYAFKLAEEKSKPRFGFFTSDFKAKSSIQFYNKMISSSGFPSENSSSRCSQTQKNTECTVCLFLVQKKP

[2] = molecular target: T2, human beta klotho protein (soluble, used in Biacore) (human, UniProt Q86Z14 53-997, limits assumed); test: Biacore SPR (as in Example 2)
T2 construct: also called HuKLB; huKLB
T2 sequence: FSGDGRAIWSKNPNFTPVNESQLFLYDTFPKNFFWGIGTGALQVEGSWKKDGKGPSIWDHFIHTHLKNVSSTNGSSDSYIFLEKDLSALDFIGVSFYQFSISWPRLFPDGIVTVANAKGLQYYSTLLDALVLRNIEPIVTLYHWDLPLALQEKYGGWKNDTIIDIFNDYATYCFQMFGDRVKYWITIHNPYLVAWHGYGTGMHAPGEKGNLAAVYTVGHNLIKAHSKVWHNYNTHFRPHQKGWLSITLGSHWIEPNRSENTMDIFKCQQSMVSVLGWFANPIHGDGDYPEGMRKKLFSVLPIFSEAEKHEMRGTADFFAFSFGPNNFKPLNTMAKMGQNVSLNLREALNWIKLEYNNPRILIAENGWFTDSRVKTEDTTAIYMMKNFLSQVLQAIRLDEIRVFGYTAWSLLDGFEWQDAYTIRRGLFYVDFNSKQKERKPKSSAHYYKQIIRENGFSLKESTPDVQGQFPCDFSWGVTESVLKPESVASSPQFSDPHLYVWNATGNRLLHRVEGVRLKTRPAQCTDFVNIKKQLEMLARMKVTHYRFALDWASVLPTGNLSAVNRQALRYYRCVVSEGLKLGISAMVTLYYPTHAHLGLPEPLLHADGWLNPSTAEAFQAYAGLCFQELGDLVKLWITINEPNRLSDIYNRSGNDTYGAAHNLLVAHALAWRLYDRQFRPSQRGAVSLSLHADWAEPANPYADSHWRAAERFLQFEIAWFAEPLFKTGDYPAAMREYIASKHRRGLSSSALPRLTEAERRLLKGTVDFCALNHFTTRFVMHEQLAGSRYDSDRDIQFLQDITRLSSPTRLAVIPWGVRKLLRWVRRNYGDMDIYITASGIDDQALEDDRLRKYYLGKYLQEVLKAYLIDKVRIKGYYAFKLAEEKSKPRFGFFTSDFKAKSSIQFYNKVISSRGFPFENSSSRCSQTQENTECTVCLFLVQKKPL

B1: antibody 5H23 (antibody, V domains shown)
VH: QVQLQQSGPELVKPGALVKISCKASGYTFTSYDINWVKQRPGQGLEWIGWIYPGDGSTKYNEKFKGKATLTADKSSRTAYMQLSSLTSENSAVYFCARSDYYGSRSFAYWGQGTLVTVSA
VL: DIVLTQSPASLAVSLGQRATISCRASKSVSTSGYVYMHWNQQKPGQPPKLLIYLASYLESGVPARFSGSGSGTDFTLNIHPVEEEDAAIYYCQHSRDLTFPFGGGTKLEIK
notes: Murine monoclonal antibody from hybridoma; also called 5H23-Alexa647 (labelled form)
B1 was tested, and the Kd [1] was 0.7 nM and the Kd [2] was 0.05 nM.
